# Experimental data: patent US20240382677A1 (Regeneron, published 2024)
# T1: recombinant cynomolgus monkey PD-1 expressed with a C-terminal myc-myc-hexahistidine tag (cynomolgus monkey)
# T1 construct: also called MfPD-1-MMH; MIPD-1-MMH
# T1 chain: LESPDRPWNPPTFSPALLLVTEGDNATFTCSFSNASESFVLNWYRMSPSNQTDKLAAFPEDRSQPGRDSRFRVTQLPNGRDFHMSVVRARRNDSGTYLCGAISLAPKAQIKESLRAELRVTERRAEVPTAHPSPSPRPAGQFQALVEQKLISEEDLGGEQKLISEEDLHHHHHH
# T2: monkey PD-1 with mFc (monkey PD-1-mFc) (monkey)
# T2 construct: also called monkey PD-1 dimer; MfPD-1 dimer
# T2 chain: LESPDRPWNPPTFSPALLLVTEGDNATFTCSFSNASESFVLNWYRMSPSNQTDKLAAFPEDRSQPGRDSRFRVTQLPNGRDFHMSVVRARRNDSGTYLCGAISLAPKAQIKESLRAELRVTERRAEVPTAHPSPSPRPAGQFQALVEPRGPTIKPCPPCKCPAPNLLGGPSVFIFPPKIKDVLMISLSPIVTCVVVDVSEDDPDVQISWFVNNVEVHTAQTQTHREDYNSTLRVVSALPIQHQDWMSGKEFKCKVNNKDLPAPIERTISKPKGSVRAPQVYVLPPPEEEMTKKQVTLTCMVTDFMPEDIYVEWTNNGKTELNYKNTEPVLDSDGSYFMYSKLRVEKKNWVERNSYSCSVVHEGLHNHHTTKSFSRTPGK
# How the values were obtained:
# [1] = target: T1, recombinant cynomolgus monkey PD-1 …; test: SPR Biacore, mAb captured, 25 C
# [2] = target: T2, monkey PD-1 with mFc (monkey PD-1-mFc); test: SPR 25C, mAb captured
# [3] = target: T2, monkey PD-1 with mFc (monkey PD-1-mFc); test: SPR 37C, mAb captured;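 also: Real-time binding of antigen to purified anti-PD-1 antibodies, measured by surface plasmon resonance on a Biacore 4000 or T200 instrument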
# [4] = target: recombinant human PD-1 expressed with a C-terminal human IgG1 Fc tag (hPD-1-hFc) (human); test: SPR Biacore 3000, captured hPD-L1-mFc
# Chain of recombinant human PD-1 expressed with a C-terminal human IgG1 Fc tag (hPD-1-hFc) (human) (chain, as listed by the source limits assumed): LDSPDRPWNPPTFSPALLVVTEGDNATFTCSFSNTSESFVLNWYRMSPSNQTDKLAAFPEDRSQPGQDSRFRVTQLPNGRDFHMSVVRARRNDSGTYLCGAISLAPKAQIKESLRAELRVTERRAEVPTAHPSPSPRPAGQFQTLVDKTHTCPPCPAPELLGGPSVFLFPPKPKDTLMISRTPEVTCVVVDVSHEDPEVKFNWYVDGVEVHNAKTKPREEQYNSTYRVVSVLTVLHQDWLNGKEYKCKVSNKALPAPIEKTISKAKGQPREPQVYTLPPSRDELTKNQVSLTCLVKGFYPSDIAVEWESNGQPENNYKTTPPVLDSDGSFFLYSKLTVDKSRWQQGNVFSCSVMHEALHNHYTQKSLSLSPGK
# [5] = target: T3, recombinant human PD-1 dimer expressed with a C-terminal mouse IgG2a Fc tag (hPD-1-mFc) (human); test: competition ELISA, 1.5 nM hPD-1-mFc, coated hPD-L1-hFc
# T3 construct: also called human PD-1-mFc
# [6] = target: T1, recombinant cynomolgus monkey PD-1 …; test: SPR Biacore, mAb captured, 37 C
# [7] = target: T3, recombinant human PD-1 dimer expressed …; test: BLI Octet Red 96, captured hPD-L1-hFc
# [8] = target: T4, human PD-1 dimer (human PD-1-mFc or human PD-1-hFc) (human, Fc-mediated homodimer; one copy of the chain is given.); test: SPR Biacore, mAb captured, 25 C
# T4 construct: also called hPD-1-mFc; hPD1-hFc; not shown: The C-terminal Fc tag
# T4 sequence (chain, as listed by the source limits assumed): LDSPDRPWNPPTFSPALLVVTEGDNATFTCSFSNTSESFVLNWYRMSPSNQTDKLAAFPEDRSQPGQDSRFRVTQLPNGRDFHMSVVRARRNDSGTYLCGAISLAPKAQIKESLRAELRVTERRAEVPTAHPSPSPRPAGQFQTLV
# [9] = target: T5, polyclonal rabbit anti-mouse antibody (GE Catalog #BR-1008-38) coupled to the CM5 Biacore sensor surface (rabbit); test: SPR Biacore 3000, antibody alone over the anti-mouse Fc capture surface of the hPD-L1-mFc assay (background control)
# T5 construct: also called anti-mouse Fc capture surface
# [10] = target: T3, recombinant human PD-1 dimer expressed …; test: competition ELISA, 1.5 nM hPD-1-mFc, coated hPD-L1-hFc; * below assay bottom
# [11] = target: PD-1 chimera hPD1-hCD300a on Jurkat/AP1-Luc cells (human); test: cell-based or functional assay
Binder,100 nM Monkey PD-1-mFc Bound [2] [RU],t½ [2] [min],100 nM Monkey PD-1-mFc Bound [3] [RU],t½ [3] [min],binding of the mixture of 100 nM hPD-1-hFc and 500 nM antibody [4] [RU],also measured
"H4H7798N (antibody, human IgG4, V domains shown, human IgG4 Fc; also called M4H7798N; HAH7798N) VH: EVQLLESGGVLVQPGGSLRLSCAASGFTFSNFGMTWVRQAPGKGLEWVSGISGGGRDTYFADSVKGRFTISRDNSKNTLYLQMNSLKGEDTAVYYCVKWGNIYFDYWGQGTLVTVSS VL: DIQMTQSPSSLSASVGDSITITCRASLSINTFLNWYQQKPGKAPNLLIYAASSLHGGVPSRFSGSGSGTDFTLTIRTLQPEDFATYYCQQSSNTPFTFGPGTVVDFRR",–,–,–,–,–,Kd [1]: 3.8 nM
"H2aM7796N (antibody, mouse IgG2a, V domains shown, mouse IgG2a Fc; also called H2M7796N) VH: QVQLVESGGGVVQPGRSLRLSCAASGFTFSSYGMHWVRQAPGKGLEWVAIIWSDGDSEYNLDSVKGRFTISRDNSKNTLYLQMNSLRVEDSAVYYCARDRDLEDIWGQGTMVTVSS VL: DIQMTQSPSSLSASVGDRVTITCRASQGIRNDLGWYQQKPGKAPKRLIYAASNLQSGVPSRFSGSGSGTEFTLTISSLQPEDFATYYCLQHNSYPLTFGGGTKVEIK",–,–,–,–,–,binding result [1]: no binding (tested: 200 nM)
"H4xH9145P2 (antibody, V domains shown, human IgG4 Fc with 2 or more amino acid changes (US20100331527)) VH: QVQLVESGGGVVQPGRSLRLSCSASGFTFSAYAMHWVRQAPGKGLEWVAAISYGGSDKYYADSVKGRFTISRDNSKNTLYLQMNSLRTDDTAVYYCAKSAHWNFFFDYWGQGTLVTVSS VL: not shown",84,77,94,19,-6,–
"H4H9019P (antibody, human IgG4, V domains shown, human IgG4 Fc; also called H4xH9019P) VH: EVQLVESGGGVVRPGGSLRLSCAASGFTFDDYGMSWVRQVPGKGLEWVSGISWNDGKTVYAESVKGRFIISRDNAKNSLYLEMNSLRAEDTALYYCARDWQYLIERYFDYWGQGTLVTVSS VL: not shown",31,129,36,45,-1,% blocking at 200 nM antibody [5]: 96%
"H2aM7788N (antibody, mouse IgG2a, V domains shown, human variable regions with mouse IgG2a Fc (H2aM prefix); also called H2M7788N; H2aM7788M) VH: EVQLVESGGGLVQPGGSLRLSCGASGFTFRNYDMHWVRQITGKGLEWVSAIGSAGDTYYPDSVKGRFTISRENAKNSLYLQMNSLRVGDTAVYYCTRDIHCSSTRCYGMDVWGQGTTVTVSS VL: not shown",–,–,–,–,–,kon [1]: 8530 M⁻¹ s⁻¹; t½ [6]: 3.6 min
"H1M7799N (antibody, mouse IgG1, V domains shown, mouse IgG1 Fc; human variable regions) VH: EVQLVESGGGLVQPGGSLRLSCAASGFTVSNNYMSWVRQAPGKGLEWVSVIYSGGFTYYTDSVKGRFTISRHNSKNTLYLQMNSLRAEDTAVYYCARYYYDTSDYWTFFDYWGQGTLVTVSS VL: EIVMTQSPATLSVSPGERATLSCRASQSVSSNLAWYQQKPGQAPRLLIYGASTRATGIPARFSGSGSGTEFTLTISSLQSGDFAVYYCQQYNNWPLTFGGGTKVEIN",–,–,–,–,–,binding of the mixture of 100 nM hPD-1-mFc and 500 nM antibody [7]: 0 nm
"H1M7800N (antibody, mouse IgG1, V domains shown, mouse IgG1 Fc; human variable regions) VH: EVQLVESGGGLVQPGGSLRLSCAASGFTVSNNYMSWVRQAPGKGLEWVSVIYSGGFTYYTDSVKGRFTISRHNSKNTLYLQMNSLRAEDTAVYYCARYYYDTSDYWTFFDYWGQGTLVTVSS VL: EIVMTQSPATLSVSPGERATLSCRASQSVSSNLAWYQQKPGQAPRLLIYGASTRATGIPARFSGSGSGTEFTLTISSLQSGDFAVYYCQQYNNWPLTFGGGTKVEIN",–,–,–,–,–,binding of the mixture of 100 nM hPD-1-mFc and 500 nM antibody [7]: 0 nm
"H4xH9008P (antibody, V domains shown, human IgG4 Fc with 2 or more amino acid changes as in US20100331527 (H4xH prefix); also called H4x19008P) VH: EVQLVESGGGLVRPGGSLRLSCAASGFTFSTYAMAWVRQTPGKGLEGVSAIGGSGDSTYYVDSVKGRFTISRDNSKSTLFLQMNSLRAEDTAVYYCVKVRNYDGSFDIWGQGTMVTVSS VL: not shown",–,–,–,–,–,Kd [8]: 0.786 nM
"H4xH9119P2 (antibody, V domains shown, human IgG4 Fc with 2 or more amino acid changes (US20100331527)) VH: EVQLVESGGGLVQPGRSLRLSCAASGFTFEDYAMHWVRQAPGKGLEWVSGIGWSNVKIGYADSVKGRFTISRDNVRNSLYLQMNSLRTEDTAFYYCVKAYTSMLTLYFDYWGQGTLVTVSS VL: not shown",83,67,40,–,-5,–
"H4xH9119P2 (antibody, V domains shown, human IgG4 Fc with 2 or more amino acid changes as in US20100331527 (H4xH prefix)) VH: EVQLVESGGGLVQPGRSLRLSCAASGFTFEDYAMHWVRQAPGKGLEWVSGIGWSNVKIGYADSVKGRFTISRDNVRNSLYLQMNSLRTEDTAFYYCVKAYTSMLTLYFDYWGQGTLVTVSS VL: not shown",–,–,–,–,–,koff [8]: 0.000152 s⁻¹
"H4xH9135P2 (antibody, V domains shown, human IgG4 Fc with 2 or more amino acid changes (US20100331527)) VH: EVQLVESGGSVVRPGGSLRLSCVVSGFTFEDYGLSWVRQIPGKGLEWVSGISWTGGNTGYADSVKGRFTISRDNAKNSLYLQMNSLRAEDTALYHCTRDRQWLMQWYFDYWGQGTLVTVSS VL: not shown",74,81,52,15,-3,–
"H4H9048P2 (antibody, human IgG4 S228P, kappa, V domains shown, human IgG4 Fc) VH: QVQLVQSGAEVKRPGSSVKVSCKVSGVTFRNFAIIWVRQAPGQGLEWMGGIIPFFSAANYAQSFQGRVTITPDESTSTAFMELASLRSEDTAVYYCAREGERGHTYGFDYWGQGTLVTVSS VL: not shown",–,–,–,–,9,% Blocking [4]: 91%; 500 nM of anti-PD-1 monoclonal antibody (RU) [9]: -7 RU
"H4H9068P2 (antibody, V domains shown) VH: EVQLVESGGGLVQRGGSLRLSCAASGFSFSSYAMNWVRQAPGKGLEWVSTISDSGGSTYYADSVKGRFTISRDNSKNTLSLQMNSLRAEDTAVYYCAKDQGGSYPYYFHYWGQGTLVTVSS VL: not shown",17,4,6,1.1,365,% Blocking [4]: -265%
"H4xH9034P (antibody, V domains shown) VH: EVQLVESGGGVVRPGGSLRLSCTASGFTFDDYGMSWVRQAPGKGLEWISGIGWTGGRSSYADSVRGRFTISRDNAKNSLYLQMNSLGAEDTALYYCARDRQWLVQWYFDYWGQGTLVTVSS VL: not shown",95,70,81,15,–,IC50 [10]: < 0.75 nM
"H4xH9034P (antibody, V domains shown, human IgG4 Fc with 2 or more amino acid changes as in US20100331527 (H4xH prefix); also called H4xH9034P2; H4xH8034P2) VH: EVQLVESGGGVVRPGGSLRLSCTASGFTFDDYGMSWVRQAPGKGLEWISGIGWTGGRSSYADSVRGRFTISRDNAKNSLYLQMNSLGAEDTALYYCARDRQWLVQWYFDYWGQGTLVTVSS VL: not shown",–,–,–,–,–,t½ [6]: 0.6 min
"H2aM7780N (antibody, mouse IgG2a, V domains shown, mouse IgG2a Fc; human variable regions; also called H2M7780N) VH: QVQLVESGGGVVQSGRSLRLSCAASGFTFSSYGMHWVRQAPGKGLEWVAVIWYDGSNIYYSDSVKGRFTISRANSKNTLYLQMNSLRAEDTAVYYCARPGHWNYFFEYWGQGTLVTVSS VL: DIQMTQSPSSLSASVGDRVTITCRASQSINNYLNWYQQKPGKAPKLLIYTASSLQSGVPSRFSGSGSGTDFTLTISSLQPEDFATYYCQQSYSTPPLTFGQGTQLEIK",–,–,–,–,–,Concentration (M) of Antibody at 150% activation [11]: 6.62e-09 M; binding of the mixture of 100 nM hPD-1-mFc and 500 nM antibody [7]: -0.01 nm
"H4xH9128P2 (antibody, V domains shown, human IgG4 Fc with 2 or more amino acid changes (US20100331527)) VH: QVQLQESGPGLVKPSETLSLTCTVSGGSISSYHWNWIRQSPGKGLEWIGYIYYIGSTDYNPSLESRVTISVDTSKNQFSLKLSSVTAADTAVYYCARVPVGATGASDVWGQGTMVTVSS VL: not shown",64,94,60,14,-5,–
"H4xH9120P2 (antibody, V domains shown, human IgG4 Fc with 2 or more amino acid changes (US20100331527)) VH: QVQLVQSGAEVKRPGASVKVSCKASGYTFTSFYMYWVRQAPGQGLEWMGIINPSDGSTSNAQKFQGRVTMTRDTSTSTVYMELSSLRSEDTAVYYCARRVAGDIFDIWGQGTMVTVSS VL: not shown",52,104,46,23,0,–
